Results as given in patent publication US7888089B2, “eNOS mutations useful for gene therapy and therapeutic screening” (Yale University, priority 1999, dated 2011).
Where “and” joins values, the source holds several entries; their conditions need not be identical. Equal entries are not always repeated. Where two headings read alike, the source gives them in different places.

Assays:
[1] = system: eNOS; assay: Hemoglobin capture assay of NO production by purified eNOS; type: biochemical, bovine; conditions: for Kcat (substrate Arginine, Hemoglobin capture): rate of NO production vs L-arginine, optimal conditions
Description: Assay for NOS Activity—NO production was measured by the hemoglobin capture assay as described (Kelm et al., 1988). Briefly, the reaction mixture contained eNOS (0.5-2.5 μg), oxyhemoglobin (8 μM), L-arginine (100 μM), BH4 (5 μM), CaCl2 (120 μM), calmodulin (120-200 nM), and NADPH (100 μM) in HEPES buffer (50 mM), pH 7.4. […] Under these conditions, free calcium was calculated using the WinMAXC program, version
NOS activity was monitored for linearity over 2 min at 401 nm, and NO production was calculated based on the change of absorbance using the extinction coefficient of 60 mM^−1 cm^−1. All reactions were carried out at 23° C., and each data point represents 3-8 observations. The extinction coefficient of 0.0033 μM^−1 cm^−1 at 276 nm was used for determination of calmodulin concentration. […] When the inactivation of eNOS was determined by the addition of EGTA (200-800 μM) to the reaction mixture, chelator was added 1 min after initiation of the reaction by NADPH. Identical conditions were used when NADPH-cytochrome c reductase activity was examined. These reactions contained CaM (120 nM) and CaCl2 (200 μM) in a 0.5-ml volume with eNOS (0.5 μg).

[2] = system: eNOS; assay: Conversion of L-arginine to L-citrulline by purified eNOS; type: biochemical, bovine; conditions: for Kcat (CaM, L-Citrulline): CaM activation of NOS activity
Description: The conversion of L-arginine to L-citrulline was assayed as described previously by Bredt et al. (1990). Briefly, eNOS (0.25-2 μg) was incubated for 3-10 min at 23° C. in the following reaction mixture: 3 pmol of L-[3H]arginine (55 Ci/mmol), 10-300 μM arginine, 1 mM NADPH, 120-200 nM calmodulin, 2 mM CaCl2, and 30 μM BH4 in a final reaction volume of 50-100 μl. The reaction was terminated by the addition of 0.5 ml of 20 mM HEPES, pH 5.5, containing 2 mM EGTA and EDTA. The reaction mixture was placed over Dowex AG50WX8, and the flow-through was counted on a Packard 1500 liquid scintillation analyzer.

[3] = system: cytochrome c; assay: NADPH-cytochrome c reductase activity of purified eNOS; type: biochemical; conditions: for EC50: cytochrome c reduction; for Km: Km for NADPH
Description: Assays for Reductase Activity—NADPH-cytochrome c reductase activity and 2,6-dichlorophenolindophenol (DCIP) reduction were measured as a change in absorbance at 550 nm as described previously by Martasek et al. (1999) and Masters et al. (1967) using an extinction coefficient of 0.021 μM^−1 cm^−1 for both cytochrome c and DCIP. Briefly, a reaction mixture (1 ml) contained either cytochrome c (90 μM); DCIP (36 μM), HEPES buffer (50 mM) at pH 7.6, NaCl (250 mM), NADPH (100 μM), calmodulin (120 nM), and CaCl2 (200 μM); or other substances as indicated. The reaction was monitored for 60 s (at 23° C.) after the addition of eNOS. When inactivation of reductase activity was determined by the addition of EGTA (200-800 μM), chelator was added 1 min after initiation of the reaction and monitored for an additional 1 min. The reaction contained HEPES buffer (50 mM) at pH 7.6, CaM (120 nM), and CaCl2 (200 μM) and was initiated with NADPH (100 μM). No NaCl was added in experiments that examined EGTA inactivation of eNOS to mimic the conditions used in the hemoglobin capture experiments. […] Determination of the calcium EC50 for eNOS was performed as described above for the hemoglobin capture assay.

[4] = system: eNOS; assay: NOS activity (3H-L-arginine to 3H-L-citrulline) in COS cell lysates; type: biochemical, bovine; conditions: COS cells transfected with eNOS only, n=3
From the text: NOS activity assays: The conversion of ^3H-L-arginine to ^3H-L-citrulline was used to determine NOS activity in COS cell or endothelial cell lysates as previously described by Garcia-Cardena et al. (1998).

EC50 ([1]; EC50 for free calcium, NO production, 250 nM CaM, read-out: EC50 (Ca2+, Hemoglobin capture, 100 mM KCl)): 250 nM | EC50 ([2]; EC50 for CaM, NOS activity): 7 nM | EC50 ([3]; EC50 for CaM, listed as S1179D eNOS, read-out: EC50 (CaM, Cytochrome c)): 13 nM | EC50 ([3]; EC50 for CaM, read-out: EC50 (CaM, Cytochrome c)): 21 nM | EC50 ([3]; EC50 for free calcium, read-out: EC50 (Ca2+, Cytochrome c, 100 mM KCl)): 220 nM | cytochrome c reduction activity compared with wild type eNOS ([3]; FIG. 6B): significant increase in activity | basal cytochrome c reduction, S1179D compared with wild type eNOS ([3]; absence of CaM): 4 fold | cytochrome c reduction, first value of pair (with superoxide dismutase) ([3]; absence of CaM): 278 ± 9 min⁻¹ | cytochrome c reduction, second value of pair (without superoxide dismutase) ([3]; absence of CaM): 288 ± 7 min⁻¹ | cytochrome c reduction with superoxide dismutase ([3]; presence of CaM): 1179 ± 43 min⁻¹ | cytochrome c reduction without superoxide dismutase ([3]; presence of CaM): 1518 ± 19 min⁻¹ | relative decrease in cytochrome c activity in the presence of superoxide dismutase ([3]; presence of CaM): 22% | CaM-stimulated cytochrome c reduction ([3]; presence of CaM, n=3-5): 1272 ± 55 min⁻¹ | level of stimulation of cytochrome c reduction by CaM ([3]; with vs without CaM): 3 fold
B1: S1179D: bovine eNOS with serine 1179 mutated to aspartic acid (protein)
chain: GNLKSVGQEPGPPCGLGLGLGLGLCGKQGPASPAPEPSRAPAPATPHAPDHSPAPNSPTLTRPPEGPKFPRVKNWELGSITYDTLCAQSQQDGPCTPRCCLGSLVLPRKLQTRPSPGPPPAEQLLSQARDFINQYYSSIKRSGSQAHEERLQEVEAEVASTGTYHLRESELVFGAKQAWRNAPRCVGRIQWGKLQVFDARDCSSAQEMFTYICNHIKYATNRGNLRSAITVFPQRAPGRGDFRIWNSQLVRYAGYRQQDGSVRGDPANVEITELCIQHGWTPGNGRFDVLPLLLQAPDEAPELFVLPPELVLEVPLEHPTLEWFAALGLRWYALPAVSNMLLEIGGLEFSAAPFSGWYMSTEIGTRNLCDPHRYNILEDVAVCMDLDTRTTSSLWKDKAAVEINLAVLHSFQLAKVTIVDHHAATVSFMKHLDNEQKARGGCPADWAWIVPPISGSLTPVFHQEMVNYILSPAFRYQPDPWKGSATKGAGITRKKTFKEVANAVKISASLMGTLMAKRVKATILYASETGRAQSYAQQLGRLFRKAFDPRVLCMDEYDVVSLEHEALVLVVTSTFGNGDPPENGESFAAALMEMSGPYNSSPRPEQHKSYKIRFNSVSCSDPLVSSWRRKRKESSNTDSAGALGTLRFCVFGLGSRAYPHFCAFARAVDTRLEELGGERLLQLGQGDELCGQEEAFRGWAKAAFQASCETFCVGEEAKAAAQDIFSPKRSWKRQRYRLSTQAEGLQLLPGLIHVHRRKMFQATVLSVENLQSSKSTRATILVRLDTAGQEGLQYQPGDHIGICPPNRPGLVEALLSRVEDPPPPTESVAVEQLEKGSPGGPPPSWVRDPRLPPCTLRQALTFFLDITSPPSPRLLRLLSTLAEEPSEQQELETLSQDPRRYEEWKWFRCPTLLEVLEQFPSVALPAPLLLTQLPLLQPRYYSVSSAPNAHPGEVHLTVAVLAYRTQDGLGPLHYGVCSTWLSQLKTGDPVPCFIRGAPSFRLPPDPYVPCILVGPGTGIAPFRGFWQERLHDIESKGLQPAPMTLVFGCRCSQLDHLYRDEVQDAQERGVFGRVLTAFSREPDSPKTYVQDILRTELAAEVHRVLCLERGHMFVCGDVTMATSVLQTVQRILATEGDMELDEAGDVIGVLRDQQRYHEDIFGLTLRTQEVTSRIRTQDFSLQERHLRGAVPWAFDPPGPDTPGP
sensitivity of NO production to the addition of EGTA ([1]; 0-600 μM EGTA, 200 μM calcium): less sensitive to the addition of EGTA | NO production after calcium chelation with EGTA ([1]; 600 μM EGTA, 200 μM calcium): residual activity was still detected | calcium dependence of NO production after normalization for maximal activity ([1]; FIG. 8C, p<0.05): slightly increased | Km ([1]; Km for L-arginine, read-out: Km (substrate Arginine, Hemoglobin capture)): 2.5 µM | Km ([1]; Km for NADPH, in presence of CaM, read-out: Km (NADPH, Hemoglobin capture)): 36 µM | Kcat (NADPH, Hemoglobin capture) ([1]; NADPH dependence, in presence of CaM): 0.883 ± 0.05 s⁻¹ | increase in the Km for NADPH, S1179D compared with wild type eNOS ([1]; NO production, presence of CaM): 4 fold | Kcat (Ca2+, Hemoglobin capture, 100 mM KCl) ([1]; calcium activation, 250 nM CaM): 1.67 ± 0.05 s⁻¹ | maximal turnover rate, FIG. 8C ([1]; calcium-dependent NO production): 100 min1 | maximal turnover rate, FIG. 8A ([1]; calmodulin-dependent hemoglobin capture): 43 min⁻¹ | Kcat (substrate Arginine, Hemoglobin capture) [1]: 1.4 ± 0.1 s⁻¹ | Kcat (substrate Arginine, Hemoglobin capture) ([1]; listed as S1179D eNOS): 1.4 ± 0.1 s⁻¹ | Kcat (CaM, L-Citrulline) [2]: 0.717 ± 0.033 s⁻¹ | Kcat (CaM, L-Citrulline) ([2]; listed as S1179D eNOS): 0.717 s⁻¹ | kcat for CaM activation of cytochrome c reduction, S1179D compared with wild type [3]: about 2 fold | Kcat (CaM, Cytochrome c) ([3]; CaM activation of cytochrome c reduction): 19 s⁻¹ and 19 ± 1.25 s⁻¹ | Km ([3]; absence of CaM): 2 µM | Km ([3]; presence of CaM): 1.9 µM | Kcat − CaM (NADPH, Cytochrome c) ([3]; NADPH dependence, absence of CaM): 4.83 ± 0.15 s⁻¹ | Kcat − CaM (NADPH, Cytochrome c) ([3]; NADPH dependence, absence of CaM, listed as eNOS S1179D): 4.83 s⁻¹ | Kcat + CaM (NADPH, Cytochrome c) ([3]; NADPH dependence, presence of CaM): 14 s⁻¹ and 14 ± 0.983 s⁻¹ | Kcat (Ca2+, Cytochrome c, 100 mM KCl) ([3]; calcium activation): 63.3 ± 0.9 s⁻¹ | maximal turnover rate, FIG. 8D ([3]; calcium-dependent cytochrome c reduction): 3810 min⁻¹ | maximal turnover rate, FIG. 8B ([3]; calmodulin-dependent cytochrome c reduction): 1400 min1 | reductase activity after calcium chelation with EGTA ([3]; highest concentration of EGTA): residual reductase activity was found | NOS activity in lysates [4]: 131.8±36.7 pmol L-citrulline generated/mg protein
